These results are taken from publication PMC9482650, “Quantitative fragmentomics allow affinity mapping of interactomes” (Nature Communications, 2022).

Common to all, as to assay: holdup assay
What all share (design): key: below the threshold = too weak to quantify, mostly under pKd 3.1 to 4

One test deals with T1, ARHGEF11, O15085.
T1 sequence (O15085 42-136, limits assumed, looked up): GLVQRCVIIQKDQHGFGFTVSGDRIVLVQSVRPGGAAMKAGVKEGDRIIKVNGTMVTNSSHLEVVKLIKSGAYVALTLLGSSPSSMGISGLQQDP

The next test concerns the target T2, SHANK2, Q9UPX8.
T2 sequence (Q9UPX8 621-730, limits assumed, looked up): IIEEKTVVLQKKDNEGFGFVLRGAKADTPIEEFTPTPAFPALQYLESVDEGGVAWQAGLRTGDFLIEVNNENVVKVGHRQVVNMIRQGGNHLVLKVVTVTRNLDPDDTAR
Conditions: plain residues with an end cap or a label only (N-terminal biotin on a linker: ttds).

In the next test the target is T3, USH1C_1, Q9Y6N9.
T3 sequence (Q9Y6N9 82-179, limits assumed, looked up): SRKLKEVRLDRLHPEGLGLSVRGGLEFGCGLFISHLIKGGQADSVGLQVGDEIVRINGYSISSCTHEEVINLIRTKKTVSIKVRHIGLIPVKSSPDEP
Conditions: plain residues with an end cap or a label only (N-terminal biotin on a linker: ttds).

A further test has as its target T4, PREX2_2, Q70Z35.
T4 sequence (Q70Z35 672-764, limits assumed, looked up): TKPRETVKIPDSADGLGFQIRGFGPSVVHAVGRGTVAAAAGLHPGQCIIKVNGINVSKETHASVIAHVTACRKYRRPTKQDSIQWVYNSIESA
The settings on record: plain residues with an end cap or a label only (N-terminal biotin on a linker: ttds).

For another test, the target named is T5, TJP3_1, O95049.
T5 sequence (O95049 6-103, limits assumed, looked up): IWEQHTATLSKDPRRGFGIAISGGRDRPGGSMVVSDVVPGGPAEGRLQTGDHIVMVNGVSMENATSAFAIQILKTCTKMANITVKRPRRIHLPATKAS
The settings on record: plain residues with an end cap or a label only (N-terminal biotin on a linker: ttds).

A further test deals with NHERF2_1, Q15599. The settings on record: plain residues with an end cap or a label only (N-terminal biotin on a linker: ttds).
NHERF2_1, Q15599, sequence (Q15599 9-91): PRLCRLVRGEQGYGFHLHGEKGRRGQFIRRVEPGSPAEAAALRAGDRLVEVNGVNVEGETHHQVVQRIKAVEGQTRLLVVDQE
Another test deals with AHNAK2, Q8IVF2. Conditions: plain residues with an end cap or a label only (N-terminal biotin on a linker: ttds).
AHNAK2, Q8IVF2, sequence (Q8IVF2 108-193): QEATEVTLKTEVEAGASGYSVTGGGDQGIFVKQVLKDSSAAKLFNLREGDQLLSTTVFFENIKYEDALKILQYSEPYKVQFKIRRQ
A further test deals with T6, LNX2_4, Q8N448.
T6 sequence (Q8N448 595-690, limits assumed, looked up): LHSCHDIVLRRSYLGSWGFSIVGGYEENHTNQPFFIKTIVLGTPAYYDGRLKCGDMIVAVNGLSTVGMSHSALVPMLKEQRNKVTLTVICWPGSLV
The settings on record: plain residues with an end cap or a label only (N-terminal biotin on a linker: ttds).

A further test concerns the target T7, NHERF1_2, O14745.
T7 sequence (O14745 149-244, limits assumed, looked up): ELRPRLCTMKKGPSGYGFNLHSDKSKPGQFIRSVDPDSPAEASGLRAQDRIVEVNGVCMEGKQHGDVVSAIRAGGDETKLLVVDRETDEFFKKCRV
Conditions: plain residues with an end cap or a label only (N-terminal biotin on a linker: ttds).

A further test concerns the target T8, SHROOM2, Q13796.
T8 sequence (Q13796 21-118, limits assumed, looked up): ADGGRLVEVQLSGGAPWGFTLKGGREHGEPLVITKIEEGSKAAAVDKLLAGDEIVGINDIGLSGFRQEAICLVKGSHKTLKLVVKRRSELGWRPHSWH
Conditions: plain residues with an end cap or a label only (N-terminal biotin on a linker: ttds).

Another test deals with T9, PDZD8, Q8NEN9.
T9 sequence (Q8NEN9 361-459, limits assumed, looked up): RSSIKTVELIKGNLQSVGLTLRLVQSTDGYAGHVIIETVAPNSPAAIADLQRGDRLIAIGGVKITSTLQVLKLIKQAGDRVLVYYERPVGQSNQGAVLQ
The settings on record: plain residues with an end cap or a label only (N-terminal biotin on a linker: ttds).

Another test addresses DLG2_1, Q15700. Conditions: plain residues with an end cap or a label only (N-terminal biotin on a linker: ttds).
Another test deals with PTPN13_2, Q12923. Conditions: plain residues with an end cap or a label only (N-terminal biotin on a linker: ttds).
PTPN13_2, Q12923, sequence (Q12923 1363-1462): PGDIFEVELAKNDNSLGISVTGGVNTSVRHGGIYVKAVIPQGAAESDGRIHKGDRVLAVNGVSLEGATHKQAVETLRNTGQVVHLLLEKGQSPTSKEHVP
Another test concerns the target T10, PDZD2_1, O15018.
T10 sequence (O15018 80-192, limits assumed, looked up): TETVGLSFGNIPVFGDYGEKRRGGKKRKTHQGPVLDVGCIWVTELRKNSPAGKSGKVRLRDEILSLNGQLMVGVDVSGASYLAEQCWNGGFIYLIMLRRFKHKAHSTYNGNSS
Conditions: plain residues with an end cap or a label only (N-terminal biotin on a linker: ttds).

The target of a further test is T11, PDZD11, Q5EBL8.
T11 sequence (Q5EBL8 42-139, limits assumed, looked up): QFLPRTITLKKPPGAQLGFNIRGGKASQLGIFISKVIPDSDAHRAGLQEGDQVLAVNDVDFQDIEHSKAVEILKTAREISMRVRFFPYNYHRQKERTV
The settings on record: plain residues with an end cap or a label only (N-terminal biotin on a linker: ttds).

The next test has as its target LIMK1, P53667. Conditions: plain residues with an end cap or a label only (N-terminal biotin on a linker: ttds).
A further test has as its target T12, PTPN13_4, Q12923.
T12 sequence (Q12923 1783-1878, limits assumed, looked up): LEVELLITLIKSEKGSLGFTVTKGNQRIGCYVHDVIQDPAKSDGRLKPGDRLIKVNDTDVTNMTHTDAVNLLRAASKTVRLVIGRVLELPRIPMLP
The settings on record: plain residues with an end cap or a label only (N-terminal biotin on a linker: ttds).

For the next test, the target named is T13, CNKSR1, Q969H4.
T13 sequence (Q969H4 191-295, limits assumed, looked up): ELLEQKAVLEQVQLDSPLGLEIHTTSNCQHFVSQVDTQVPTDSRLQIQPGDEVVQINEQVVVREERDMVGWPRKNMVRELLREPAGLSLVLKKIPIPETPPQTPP
Conditions: plain residues with an end cap or a label only (N-terminal biotin on a linker: ttds).

The next test concerns the target GRIP2_2, Q9C0E4. Conditions: plain residues with an end cap or a label only (N-terminal biotin on a linker: ttds).
The next test has as its target T14, NHERF1_1, O14745.
T14 sequence (O14745 9-104, limits assumed, looked up): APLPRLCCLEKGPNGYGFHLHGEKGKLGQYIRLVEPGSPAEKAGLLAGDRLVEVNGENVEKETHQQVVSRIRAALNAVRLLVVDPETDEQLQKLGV
Conditions: plain residues with an end cap or a label only (N-terminal biotin on a linker: ttds).

The next test deals with DLG5_2, Q8TDM6. Conditions: plain residues with an end cap or a label only (N-terminal biotin on a linker: ttds).
DLG5_2, Q8TDM6, sequence (Q8TDM6 714-800): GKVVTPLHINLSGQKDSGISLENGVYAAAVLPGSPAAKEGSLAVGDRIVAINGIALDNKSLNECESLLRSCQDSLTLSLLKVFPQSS
The next test concerns the target PDZRN4_2, Q6ZMN7. Conditions: plain residues with an end cap or a label only (N-terminal biotin on a linker: ttds).
Setting [1] is: plain residues with an end cap or a label only (N-terminal biotin on a linker: ttds).
The mark [2] stands for this setting: plain residues with an end cap or a label only (N-terminal biotin on a linker: ahx).

Broadly, the pKd is the Kd on a negative log10 scale, so that one unit is a factor of ten.

LIMK1, P53667, sequence (P53667 155-268): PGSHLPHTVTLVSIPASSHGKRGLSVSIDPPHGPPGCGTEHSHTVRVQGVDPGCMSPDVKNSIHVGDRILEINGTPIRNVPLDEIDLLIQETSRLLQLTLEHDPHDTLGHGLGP
PDZRN4_2, Q6ZMN7, sequence (Q6ZMN7 389-498): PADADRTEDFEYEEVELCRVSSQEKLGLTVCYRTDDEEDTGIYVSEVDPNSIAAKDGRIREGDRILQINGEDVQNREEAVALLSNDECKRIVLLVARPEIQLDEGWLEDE
GRIP2_2, Q9C0E4, sequence (Q9C0E4 137-245): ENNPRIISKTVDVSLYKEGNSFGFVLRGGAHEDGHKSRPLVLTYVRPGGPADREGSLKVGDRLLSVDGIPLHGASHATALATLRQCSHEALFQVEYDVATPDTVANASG

B1: VANGL1, Q8TAA9 (peptide)
chain: VLRLQSETSV
As to B1, the pKd result in the test with ARHGEF11, O15085 (setting [1]) is recorded as “below the threshold”.

B2: CNKSR2, Q8WXI2 (peptide)
chain: HTHSYIETHV
Consider B2, for which the pKd result with ARHGEF11, O15085 (setting [2]) is listed as “below the threshold”.

B3: MYO18A, Q92614 (peptide)
chain: TEAKLTETNA
For B3, the pKd entry with ARHGEF11, O15085 (setting [2]) is given as “below the threshold”.

B4: CYSLTR2, Q9NS75 (peptide)
chain: SVWLRKETRV
B4: the pKd result with SHANK2, Q9UPX8 is “below the threshold”; in the test with USH1C_1, Q9Y6N9, “below the threshold”; with PREX2_2, Q70Z35, “below the threshold”; in the test with TJP3_1, O95049 it was “below the threshold”; with ARHGEF11, O15085 (setting [1]), 4.46; with NHERF2_1, Q15599, “below the threshold”. Also, the pKd entry was “below the threshold” with AHNAK2, Q8IVF2; “below the threshold” with LNX2_4, Q8N448; “below the threshold” with NHERF1_2, O14745; 4.35 with SHROOM2, Q13796; “below the threshold” with PDZD8, Q8NEN9; 5.26 with DLG2_1, Q15700. For the same molecule, the negative logarithm of the Kd (pKd) entry is “below the threshold” in the test with PTPN13_2, Q12923; “below the threshold” in the test with PDZD2_1, O15018; “below the threshold” with PDZD11, Q5EBL8; “below the threshold” with LIMK1, P53667; “below the threshold” in the test with PTPN13_4, Q12923; “below the threshold” in the test with CNKSR1, Q969H4. For the same molecule, the negative logarithm of the Kd (pKd) entry is “below the threshold” with GRIP2_2, Q9C0E4; “below the threshold” with NHERF1_1, O14745; 4.71 with DLG5_2, Q8TDM6; “below the threshold” in the test with PDZRN4_2, Q6ZMN7.

B5: LRP4, O75096 (peptide)
chain: ERKLSSESQV
As to B5, in the test with ARHGEF11, O15085 (setting [1]), the pKd result is on record as “below the threshold”.

B6: SLC1A5, Q15758 (peptide)
chain: TVASEKESVM
In turn, B6 had a pKd with ARHGEF11, O15085 (setting [1]) of 3.56.

B7: AXIN1_int, O15169 (peptide)
chain: TLSLTDSSVDGIPPYR
Turning to B7, the negative-log Kd (pKd) entry with ARHGEF11, O15085 (plain residues with an end cap or a label only (N-terminal biotin on a linker: gsgsgs; C-terminal amide)) was “below the threshold”.

B8: DLGAP4, Q9Y2H0 (peptide)
chain: IYVPEAQTRL
In the case of B8, in the test with ARHGEF11, O15085 (setting [1]), the pKd was 3.7.

B9: HPV67-E6, A4U7F2 (peptide)
chain: SRPQRTQTQV
For B9, the pKd entry in the test with SHANK2, Q9UPX8 is “below the threshold”; with USH1C_1, Q9Y6N9, “below the threshold”; with PREX2_2, Q70Z35 it was “below the threshold”; with TJP3_1, O95049, “below the threshold”; with ARHGEF11, O15085 (setting [1]), 4.05; with NHERF2_1, Q15599, “below the threshold”. Besides, the pKd result with AHNAK2, Q8IVF2 was “below the threshold”; in the test with LNX2_4, Q8N448 it was “below the threshold”; with NHERF1_2, O14745, “below the threshold”; with SHROOM2, Q13796, “below the threshold”; with PDZD8, Q8NEN9, “below the threshold”; with DLG2_1, Q15700, 4.25. In addition, the pKd entry was “below the threshold” with PTPN13_2, Q12923; “below the threshold” in the test with PDZD2_1, O15018; “below the threshold” with PDZD11, Q5EBL8; “below the threshold” with LIMK1, P53667; “below the threshold” in the test with PTPN13_4, Q12923; “below the threshold” in the test with CNKSR1, Q969H4. Besides, the pKd result is “below the threshold” in the test with NHERF1_1, O14745; 4.16 in the test with DLG5_2, Q8TDM6; “below the threshold” with PDZRN4_2, Q6ZMN7.

B10: KCNT2, Q6UVM3 (peptide)
chain: GQDSREETQL
In the test with ARHGEF11, O15085 (setting [1]), B10 registered a pKd of 4.44.

B11: ARHGAP17, Q68EM7 (peptide)
chain: IDNDTESTAL
B11 came in with a pKd with ARHGEF11, O15085 (setting [1]) of 4.79.

B12: GRASP, Q7Z6J2 (peptide)
chain: RSLEEEESQL
For the molecule B12, the pKd with SHANK2, Q9UPX8 was 4.33; with USH1C_1, Q9Y6N9, “below the threshold”; with PREX2_2, Q70Z35, “below the threshold”; with TJP3_1, O95049 it was “below the threshold”; in the test with ARHGEF11, O15085 (setting [1]), 3.78; in the test with NHERF2_1, Q15599, “below the threshold”. The pKd with AHNAK2, Q8IVF2 was 4.3; in the test with LNX2_4, Q8N448, “below the threshold”; with NHERF1_2, O14745, “below the threshold”; with SHROOM2, Q13796, “below the threshold”; in the test with PDZD8, Q8NEN9 it was “below the threshold”; in the test with DLG2_1, Q15700, “below the threshold”. In addition, the pKd result with PTPN13_2, Q12923 is “below the threshold”; in the test with PDZD2_1, O15018, “below the threshold”; in the test with PDZD11, Q5EBL8, “below the threshold”; with LIMK1, P53667, 4.27; in the test with PTPN13_4, Q12923, “below the threshold”; with CNKSR1, Q969H4 it was “below the threshold”. Also, the pKd entry is “below the threshold” with GRIP2_2, Q9C0E4; 4.46 with NHERF1_1, O14745; “below the threshold” with DLG5_2, Q8TDM6; “below the threshold” with PDZRN4_2, Q6ZMN7.
